Assay [1] addresses HLA-C*06:02. The assay is described as follows: IEDB peptide-MHC binding, purified MHC/direct/fluorescence; filed as Kd, often an IC50 or EC50 that approximates it; ≥ and ≤ were set here for values at or beyond the usual limits of such assays. To be noted: source organism: human gammaherpesvirus 4.
In another assay the target is HLA-B*27:20. Description: IEDB peptide-MHC binding, purified MHC/competitive/fluorescence; filed as Kd, often an IC50 or EC50 that approximates it; ≥ and ≤ were set here for values at or beyond the usual limits of such assays.
The next assay has as its target HLA-B*15:42. The description is as above.
The next assay deals with HLA-B*45:06. Described as above.
The target of a further assay is HLA-B*83:01. Described as above.
For a further assay, the target named is HLA-A*80:01. The assay is described as follows: IEDB peptide-MHC binding, purified MHC/direct/fluorescence; filed as Kd, often an IC50 or EC50 that approximates it; ≥ and ≤ were set here for values at or beyond the usual limits of such assays.
A further assay addresses HLA-C*04:01. The description is as above. To be noted: source organism: Japanese encephalitis virus.
A further assay addresses HLA-B*40:02. The assay is described as follows: IEDB peptide-MHC binding, cellular MHC/competitive/fluorescence; ≥ and ≤ were set here for values at or beyond the usual limits of such assays. Conditions: source organism: Homo sapiens.
The next assay concerns the target HLA-A*24:02. Description: IEDB peptide-MHC binding, purified MHC/competitive/fluorescence; filed as Kd, often an IC50 or EC50 that approximates it; ≥ and ≤ were set here for values at or beyond the usual limits of such assays. To be noted: source organism: Hepacivirus hominis.
The target in another assay is HLA-B*08:01. The assay is described as follows: IEDB peptide-MHC binding, purified MHC/direct/fluorescence; filed as Kd, often an IC50 or EC50 that approximates it; ≥ and ≤ were set here for values at or beyond the usual limits of such assays. To be noted: source organism: Mycobacterium tuberculosis str. Haarlem.
Another assay addresses HLA-A*11:01. Described as above. Conditions: source organism: Mycobacterium tuberculosis.
A further assay addresses HLA-B*27:05. The assay is described as above.
The next assay deals with HLA-A*01:01. The assay is described as above. Conditions: source organism: Mycobacterium tuberculosis.
Another assay has as its target HLA-B*08:02. The assay is described as above. Conditions: source organism: Mycobacterium tuberculosis str. Haarlem.
The target of a further assay is HLA-B*15:17. The assay is described as above. To be noted: source organism: Mycobacterium tuberculosis.
Another assay concerns the target HLA-A*31:01. Described as above. Conditions: source organism: Mycobacterium tuberculosis.
A further assay concerns the target HLA-B*48:01. Described as above.
In the next assay the target is HLA-B*58:01. The assay is described as above.
The next assay concerns the target HLA-B*57:01. Described as above.
The target in another assay is HLA-A*02:01. The description is as above. Conditions: source organism: Mycobacterium tuberculosis.
For the next assay, the target named is HLA-B*40:01. The description is as above. Conditions: source organism: Mycobacterium tuberculosis.
The target in a further assay is HLA-A*69:01. Described as above. To be noted: source organism: Mycobacterium tuberculosis.
The target in another assay is HLA-B*18:01. The description is as above.
For another assay, the target named is HLA-B*46:01. Described as above. Conditions: source organism: Mycobacterium tuberculosis.
The next assay has as its target HLA-B*08:03. Described as above. To be noted: source organism: Mycobacterium tuberculosis str. Haarlem.
The next assay addresses HLA-B*15:01. The assay is described as above.
For another assay, the target named is HLA-A*02:06. The assay is described as follows: IEDB peptide-MHC binding, purified MHC/competitive/fluorescence; filed as Kd, often an IC50 or EC50 that approximates it; ≥ and ≤ were set here for values at or beyond the usual limits of such assays. To be noted: source organism: Mycobacterium tuberculosis variant bovis BCG str. Pasteur 1173P2.
Another assay deals with HLA-B*07:02. The description is as above. To be noted: source organism: Mycobacterium tuberculosis variant bovis BCG str. Pasteur 1173P2.
A further assay concerns the target HLA-A*26:02. Described as above. Conditions: source organism: Mycobacterium tuberculosis variant bovis BCG str. Pasteur 1173P2.
Another assay concerns the target HLA-A*68:02. The description is as above. To be noted: source organism: Mycobacterium tuberculosis variant bovis BCG str. Pasteur 1173P2.
Another assay has as its target HLA-A*26:01. The assay is described as above.
The next assay has as its target HLA-A*26:03. Described as above. To be noted: source organism: Mycobacterium tuberculosis variant bovis BCG str. Pasteur 1173P2.
The target in another assay is HLA-B*73:01. Description: IEDB peptide-MHC binding, purified MHC/direct/fluorescence; filed as Kd, often an IC50 or EC50 that approximates it; ≥ and ≤ were set here for values at or beyond the usual limits of such assays. To be noted: source organism: Burkholderia mallei ATCC 23344.
In a further assay the target is HLA-A*25:01. Described as above. Conditions: source organism: West Nile virus strain PTRoxo.
A further assay addresses HLA-A*29:02. Described as above. To be noted: source organism: West Nile virus strain PTRoxo.
The next assay has as its target HLA-A*30:01. Described as above. Conditions: source organism: West Nile virus strain PTRoxo.
The next assay addresses HLA-B*51:01. The assay is described as above. Conditions: source organism: West Nile virus.
Another assay concerns the target HLA-B*44:02. The description is as above. Conditions: source organism: West Nile virus strain PTRoxo.
Another assay concerns the target HLA-C*07:02. The assay is described as above. To be noted: source organism: Methylibium petroleiphilum PM1.
A further assay deals with HLA-C*15:02. The description is as above. Conditions: source organism: Methylibium petroleiphilum PM1.
A further assay concerns the target HLA-C*14:02. The assay is described as follows: IEDB peptide-MHC binding, purified MHC/competitive/fluorescence; filed as Kd, often an IC50 or EC50 that approximates it; ≥ and ≤ were set here for values at or beyond the usual limits of such assays. Conditions: source organism: Methylibium petroleiphilum PM1.
Assay [2] addresses HLA-C*06:02. The assay is described as above. Conditions: source organism: Methylibium petroleiphilum PM1.
Another assay has as its target HLA-B*15:02. The assay is described as above. To be noted: source organism: Methylibium petroleiphilum PM1.
A further assay concerns the target HLA-B*40:13. The assay is described as above. To be noted: source organism: Methylibium petroleiphilum PM1.
Setting [3] is: source organism: human gammaherpesvirus 4.
The mark [4] stands for this setting: source organism: West Nile virus.
The mark [5] stands for this setting: source organism: Hepacivirus hominis.
[6] abbreviates: source organism: Mycobacterium tuberculosis.
[7] abbreviates: source organism: Burkholderia mallei.
Where [8] appears, read: source organism: West Nile virus strain PTRoxo.
Where [9] appears, read: source organism: Methylibium petroleiphilum PM1.

This note sets out measurements from the Immune Epitope Database (IEDB).

As usually defined, the Kd is the constant that tells how readily two partners part at equilibrium. A low value points to tighter binding. As a reminder, the IC50 is the midpoint of a concentration-inhibition curve. Read a high IC50 as weaker potency.

For RRRKGWIPL, the Kd was no less than 20 µM with HLA-C*06:02 [1]; 0.0002 µM with HLA-B*27:20 (setting [3]); no less than 5 µM with HLA-B*15:42 (setting [3]); no less than 5 µM with HLA-B*45:06 (setting [3]); no less than 5 µM in the assay with HLA-B*83:01 (setting [3]).
QTDNQLAVF: the Kd in the assay with HLA-A*80:01 (setting [4]) and with HLA-C*04:01 was no less than 20 µM in each case.
Sequence KEQSPEPHL had a half-inhibitory concentration (IC50) with HLA-B*40:02 of 1.9 µM.
On to LLPRRGPRL, for which the dissociation constant (Kd) with HLA-A*24:02 is 0.09 µM; with HLA-B*15:42 (setting [5]), no less than 5 µM; with HLA-B*45:06 (setting [5]) it was no less than 5 µM; with HLA-B*83:01 (setting [5]) it was no less than 5 µM.
On to AVFDSFVER, for which the Kd with HLA-B*08:01 was no less than 20 µM; in the assay with HLA-A*11:01, 0.009 µM; with HLA-B*27:05 (setting [6]), no less than 20 µM; in the assay with HLA-A*01:01, no less than 20 µM; with HLA-B*08:02, no less than 20 µM; in the assay with HLA-B*15:17, no less than 20 µM. Also, the Kd was 0.004 µM in the assay with HLA-A*31:01; no less than 20 µM with HLA-B*48:01 (setting [6]); no less than 20 µM in the assay with HLA-B*58:01 (setting [6]); no less than 20 µM with HLA-B*57:01 (setting [6]); no less than 20 µM with HLA-A*02:01; no less than 20 µM with HLA-B*40:01. Besides, the equilibrium dissociation constant (Kd) is no less than 20 µM with HLA-A*69:01; no less than 20 µM with HLA-B*18:01 (setting [6]); no less than 20 µM with HLA-B*46:01; no less than 20 µM in the assay with HLA-B*08:03; no less than 20 µM with HLA-B*15:01 (setting [6]); 0.0023 µM with HLA-A*02:06. The dissociation constant Kd with HLA-B*07:02, with HLA-A*26:02, with HLA-A*68:02, with HLA-A*26:01 (source organism: Mycobacterium tuberculosis variant bovis BCG str. Pasteur 1173P2) and in the assay with HLA-A*26:03 was no less than 20 µM each time.
In the case of RRHGMAWRQ, the Kd in the assay with HLA-B*27:05 (setting [7]) is 0.213 µM; with HLA-B*48:01 (setting [7]) it was no less than 20 µM; with HLA-B*73:01, 12 µM.
With EIPDVLNSL, the Kd in the assay with HLA-A*25:01 is 0.023 µM; with HLA-A*80:01 (setting [8]), no less than 20 µM; with HLA-A*29:02 it was no less than 20 µM; in the assay with HLA-A*30:01, no less than 20 µM; in the assay with HLA-B*51:01 it was no less than 20 µM; in the assay with HLA-B*58:01 (setting [8]) it was no less than 20 µM. Further, the Kd was no less than 20 µM in the assay with HLA-B*57:01 (setting [8]); no less than 20 µM with HLA-B*18:01 (setting [8]); no less than 20 µM with HLA-B*44:02; no less than 20 µM with HLA-B*15:01 (setting [8]); 0.277 µM with HLA-A*26:01 (setting [4]).
Regarding FQMGGIGPM, the equilibrium dissociation constant (Kd) in the assay with HLA-C*07:02 was 0.448 µM; with HLA-C*15:02, 2.18 µM; with HLA-C*14:02, 0.0132 µM; with HLA-C*06:02 [2], 0.513 µM; with HLA-B*27:20 (setting [9]), 0.0003 µM; with HLA-B*15:42 (setting [9]), no less than 5 µM. In addition, the Kd with HLA-B*15:02 was 0.0144 µM; in the assay with HLA-B*45:06 (setting [9]), no less than 5 µM; with HLA-B*40:13, 0.0088 µM; in the assay with HLA-B*83:01 (setting [9]) it was no less than 5 µM.
